Measurements as given in US20240002531A1 (ONO PHARMACEUTICAL, published 2024).
Blank lines part the entries; values can stand above or below the binder they belong to.

Experiments:
HER2 peptide p614-619 = molecular target: T1, HER2 peptide p614-619 (human); experiment: SPR Biacore, mAb on chip, peptide analyte, 1:1 fit;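 note: all binding measurements run at 25 °C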
T1 peptide: WKFPDE

HER2 peptide p613-621 = molecular target: T2, HER2 peptide p613-621 (human); experiment: SPR Biacore, mAb on chip, peptide analyte, 1:1 fit;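 note: all binding measurements run at 25 °C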
T2 peptide: IWKFPDEEG

HER2 peptide p612-622 = molecular target: T3, HER2 peptide p612-622 (human); experiment: SPR Biacore, mAb on chip, peptide analyte, 1:1 fit;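 note: all binding measurements run at 25 °C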
T3 peptide: PIWKFPDEEGA

HER2 peptide p611-619 = molecular target: T4, HER2 peptide p611-619 (human); experiment: SPR Biacore, mAb on chip, peptide analyte, 1:1 fit;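 note: all binding measurements run at 25 °C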
T4 peptide: MPIWKFPDE

HER2 peptide p611-620 = molecular target: T5, HER2 peptide p611-620 (human); experiment: SPR Biacore, mAb on chip, peptide analyte, 1:1 fit;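 note: all binding measurements run at 25 °C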
T5 peptide: MPIWKFPDEE

HER2 peptide p611-622 = molecular target: T6, HER2 peptide p611-622 (human); experiment: SPR Biacore, mAb on chip, peptide analyte, 1:1 fit;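 note: all binding measurements run at 25 °C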
T6 peptide: MPIWKFPDEEGA

HER2 peptide p610-618 = molecular target: T7, HER2 peptide p610-618 (human); experiment: SPR Biacore, mAb on chip, peptide analyte, 1:1 fit
T7 peptide: YMPIWKFPD

HER2 peptide p610-620 = molecular target: T8, HER2 peptide p610-620 (human); experiment: SPR Biacore, mAb on chip, peptide analyte, 1:1 fit
T8 peptide: YMPIWKFPDEE

HER2 peptide p610-622 = molecular target: T9, HER2 peptide p610-622 (human); experiment: SPR Biacore, mAb on chip, peptide analyte, 1:1 fit
T9 peptide: YMPIWKFPDEEGA

HER2 peptide p609-619 = molecular target: T10, HER2 peptide p609-619 (human); experiment: SPR Biacore, mAb on chip, peptide analyte, 1:1 fit
T10 peptide: SYMPIWKFPDE

HER2 peptide p609-620 = molecular target: T11, HER2 peptide p609-620 (human); experiment: SPR Biacore, mAb on chip, peptide analyte, 1:1 fit
T11 peptide: SYMPIWKFPDEE

[1] = molecular target: T12, I613A peptide (HER2 603-622 with I613A) (human); experiment: SPR Biacore, mAb on chip, peptide analyte, equilibrium analysis
T12 construct: also called 1613A
T12 peptide: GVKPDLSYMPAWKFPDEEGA

[2] = molecular target: T13, W614A peptide (HER2 603-622 with W614A) (human); experiment: as above
T13 peptide: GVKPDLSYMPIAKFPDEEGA

[3] = molecular target: T14, K615A peptide (HER2 603-622 with K615A) (human); experiment: as above
T14 peptide: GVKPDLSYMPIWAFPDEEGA

[4] = molecular target: T15, F616A peptide (HER2 603-622 with F616A) (human); experiment: as above
T15 peptide: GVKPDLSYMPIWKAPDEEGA

[5] = molecular target: T16, HER2 peptide p603-622 (amino acids 603 to 622 of human HER2) (human); experiment: SPR Biacore, mAb on chip, peptide analyte, 1:1 fit; Table 2 (deletion mutants series)
T16 construct: Synthetic peptide; also called wild-type HER2 peptide
T16 peptide: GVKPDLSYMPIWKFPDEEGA

[6] = molecular target: T17, V604A peptide (HER2 603-622 with V604A) (human); experiment: SPR Biacore, mAb on chip, peptide analyte, 1:1 fit;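 note: where kon or koff could not be resolved by kinetic fitting, Kd comes instead from steady-state equilibrium analysis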
T17 peptide: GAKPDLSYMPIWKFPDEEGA

[7] = molecular target: T18, K605A peptide (HER2 603-622 with K605A) (human); experiment: SPR Biacore, mAb on chip, peptide analyte, 1:1 fit;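 note: where kon or koff could not be resolved by kinetic fitting, Kd comes instead from steady-state equilibrium analysis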
T18 peptide: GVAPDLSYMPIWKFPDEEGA

[8] = molecular target: T19, D607A peptide (HER2 603-622 with D607A) (human); experiment: SPR Biacore, mAb on chip, peptide analyte, 1:1 fit;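 note: where kon or koff could not be resolved by kinetic fitting, Kd comes instead from steady-state equilibrium analysis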
T19 peptide: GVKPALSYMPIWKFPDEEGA

[9] = molecular target: T15, F616A peptide (HER2 603-622 with F616A); experiment: SPR Biacore, mAb on chip, peptide analyte, 1:1 fit;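 note: where kon or koff could not be resolved by kinetic fitting, Kd comes instead from steady-state equilibrium analysis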
[10] = molecular target: T20, D618A peptide (HER2 603-622 with D618A) (human); experiment: SPR Biacore, mAb on chip, peptide analyte, 1:1 fit
T20 peptide: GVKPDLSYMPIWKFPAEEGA

[11] = molecular target: T21, E619A peptide (HER2 603-622 with E619A) (human); experiment: SPR Biacore, mAb on chip, peptide analyte, 1:1 fit
T21 peptide: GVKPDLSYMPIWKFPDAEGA

[12] = molecular target: T22, E620A peptide (HER2 603-622 with E620A) (human); experiment: SPR Biacore, mAb on chip, peptide analyte, 1:1 fit
T22 peptide: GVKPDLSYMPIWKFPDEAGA

[13] = molecular target: T23, G621A peptide (HER2 603-622 with G621A) (human); experiment: SPR Biacore, mAb on chip, peptide analyte, 1:1 fit
T23 peptide: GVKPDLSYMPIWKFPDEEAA

- Kd (HER2 peptide p614-619): 8540 nM
- koff (HER2 peptide p614-619): 0.0119 s⁻¹
- kon (HER2 peptide p614-619): 1400 M⁻¹ s⁻¹
- Kd (HER2 peptide p613-621): 13000 nM
- koff (HER2 peptide p613-621): 0.00955 s⁻¹
- kon (HER2 peptide p613-621): 736 M⁻¹ s⁻¹
- Kd (HER2 peptide p612-622): 39.7 nM
- koff (HER2 peptide p612-622): 0.0244 s⁻¹
- kon (HER2 peptide p612-622): 615000 M⁻¹ s⁻¹
- Kd (HER2 peptide p611-619): 11.1 nM
- koff (HER2 peptide p611-619): 0.0083 s⁻¹
- kon (HER2 peptide p611-619): 747000 M⁻¹ s⁻¹
- Kd (HER2 peptide p611-620): 17.6 nM
- koff (HER2 peptide p611-620): 0.00836 s⁻¹
- kon (HER2 peptide p611-620): 475000 M⁻¹ s⁻¹
- Kd (HER2 peptide p611-622): 23.9 nM
- koff (HER2 peptide p611-622): 0.0108 s⁻¹
- kon (HER2 peptide p611-622): 451000 M⁻¹ s⁻¹
- Kd (HER2 peptide p610-618): 14.5 nM
- koff (HER2 peptide p610-618): 0.0121 s⁻¹
- kon (HER2 peptide p610-618): 837000 M⁻¹ s⁻¹
- Kd (HER2 peptide p610-620): 8.68 nM
- koff (HER2 peptide p610-620): 0.00502 s⁻¹
- kon (HER2 peptide p610-620): 579000 M⁻¹ s⁻¹
- Kd (HER2 peptide p610-622): 38.8 nM
- koff (HER2 peptide p610-622): 0.00598 s⁻¹
- kon (HER2 peptide p610-622): 154000 M⁻¹ s⁻¹
- Kd (HER2 peptide p609-619): 5.76 nM
- koff (HER2 peptide p609-619): 0.00449 s⁻¹
- kon (HER2 peptide p609-619): 779000 M⁻¹ s⁻¹
- Kd (HER2 peptide p609-620): 6.89 nM
- koff (HER2 peptide p609-620): 0.00445 s⁻¹
- kon (HER2 peptide p609-620): 645000 M⁻¹ s⁻¹
- Kd [1]: 39300 nM
- Kd [2]: 1460 nM
- Kd [3]: 578000 nM
- Kd [4]: 410000 nM
- kon [5]: 234000 M⁻¹ s⁻¹
B1: H2Mab-214 antibody (antibody, V domains shown)
VH: QVTLKESGPGILQPSQTLSLTCSFSGFSLSTSGMGVSWIRQPSGKGLEWLAHIFWDDDKRYNPSLKSRLTISKDTSRNKVFLKITSVDTADTATYYCARRVVATDWYFDVWGAGTTVTVSS
VL: DIVLTQSPASLAVSLGQRATISCRASESVEYYGTTLMQWYQQKPGQPPKLLIYAASKVESGVPARFSGSGSGTDFSLNIHPVEEDDVAMYFCQQSRKVPLTFGAGTKLELKR
notes: Mouse monoclonal from a hybridoma (immunogen HER2ec made in LN229 cells); also called antibody of the present invention

- Kd [6]: 6.54 nM
- koff [6]: 0.000399 s⁻¹
- kon [6]: 61000 M⁻¹ s⁻¹
- Kd [7]: 6.45 nM
- koff [7]: 0.000346 s⁻¹
- kon [7]: 53600 M⁻¹ s⁻¹
- Kd [8]: 7.06 nM
- koff [8]: 0.00052 s⁻¹
- kon [8]: 73600 M⁻¹ s⁻¹
- Kd [9]: 204 nM
- koff [9]: 0.0108 s⁻¹
- kon [9]: 52800 M⁻¹ s⁻¹
- Kd [10]: 5.8 nM
- koff [10]: 0.000432 s⁻¹
- kon [10]: 74500 M⁻¹ s⁻¹
- Kd [11]: 6.29 nM
- koff [11]: 0.000465 s⁻¹
- kon [11]: 73900 M⁻¹ s⁻¹
- Kd [12]: 7.98 nM
- koff [12]: 0.000455 s⁻¹
- kon [12]: 57100 M⁻¹ s⁻¹
- Kd [13]: 6.91 nM
- koff [13]: 0.000399 s⁻¹
- kon [13]: 57800 M⁻¹ s⁻¹
B2: H2Mab-250 antibody (antibody, V domains shown)
VH: EVQLVESGGGLVQPGGSLKLSCAASGFTFSNYGMSWVRQTPDRRLELVATINNNGGGTYYPDSVKGRFTISRDNAKNTLYLQMSSLKSEDTAMYYCTSPGLLWDAWGAGTTVTVSS
VL: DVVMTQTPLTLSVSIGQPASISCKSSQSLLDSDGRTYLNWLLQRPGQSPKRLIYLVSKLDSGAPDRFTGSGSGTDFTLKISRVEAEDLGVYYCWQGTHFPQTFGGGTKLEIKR
notes: as for B1
